Measurements as given in FireProtDB (doi:10.1002/pro.5560040106).

Conditions: Bacillus subtilis (strain 168), pH 7, Urea, CD, Potassium phosphate 10 mM, reversible: yes, whole UniProt chain shown

B1: Phosphocarrier protein HPr wild type, P08877 (protein)
chain: MAQKTFKVTADSGIHARPATVLVQTASKYDADVNLEYNGKTVNLKSIMGVMSLGIAKGAEITISASGADENDALNALEETMKSEGLGE
10 °C
  denaturant m value: 1.04 kcal/mol/M
  denaturant midpoint (higher = more stable): 3.32 M
  unfolding free energy: 3.45 kcal/mol
15 °C
  denaturant m value: 1.06 kcal/mol/M
  denaturant midpoint (higher = more stable): 3.52 M
  unfolding free energy: 3.73 kcal/mol
25 °C
  denaturant m value: 1.08 kcal/mol/M
  denaturant midpoint (higher = more stable): 3.9 M
  unfolding free energy: 4.21 kcal/mol
35 °C
  denaturant m value: 1.05 kcal/mol/M
  denaturant midpoint (higher = more stable): 3.77 M
  unfolding free energy: 3.96 kcal/mol
40 °C
  denaturant m value: 1.04 kcal/mol/M
  denaturant midpoint (higher = more stable): 3.64 M
  unfolding free energy: 3.79 kcal/mol
